How the values were obtained:
Assay in all cases: SPR; KD relative to WT C2;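 note: biacore SPR at 37 °C, anti-C2 mAbs captured on an anti-human IgG chip, alanine or serine C2 surface mutants tested, KD from 1:1 fit compared with wild-type C2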
[1] = target: T1, human C2 G427A (human, UniProt P06681 21-752)
T1 sequence: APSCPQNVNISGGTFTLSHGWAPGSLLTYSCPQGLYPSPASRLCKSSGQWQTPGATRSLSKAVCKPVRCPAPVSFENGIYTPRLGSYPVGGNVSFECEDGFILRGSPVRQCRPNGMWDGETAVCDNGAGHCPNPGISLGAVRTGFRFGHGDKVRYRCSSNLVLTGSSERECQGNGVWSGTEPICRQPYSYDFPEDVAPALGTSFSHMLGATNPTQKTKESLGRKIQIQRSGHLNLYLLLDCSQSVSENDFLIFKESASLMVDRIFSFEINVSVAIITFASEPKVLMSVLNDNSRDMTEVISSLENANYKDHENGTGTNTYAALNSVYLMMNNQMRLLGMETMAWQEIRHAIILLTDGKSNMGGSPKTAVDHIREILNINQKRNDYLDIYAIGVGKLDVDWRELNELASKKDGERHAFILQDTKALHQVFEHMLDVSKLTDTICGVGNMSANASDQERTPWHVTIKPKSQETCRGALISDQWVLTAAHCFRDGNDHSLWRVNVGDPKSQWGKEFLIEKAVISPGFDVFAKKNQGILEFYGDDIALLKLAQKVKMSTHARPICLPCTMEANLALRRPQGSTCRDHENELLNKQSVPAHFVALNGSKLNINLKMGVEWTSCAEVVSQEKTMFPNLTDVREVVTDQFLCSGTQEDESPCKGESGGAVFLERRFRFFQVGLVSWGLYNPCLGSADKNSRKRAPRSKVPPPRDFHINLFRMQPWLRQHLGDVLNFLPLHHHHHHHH

[2] = target: T2, human C2 A470S (human, UniProt P06681 21-752)
T2 sequence: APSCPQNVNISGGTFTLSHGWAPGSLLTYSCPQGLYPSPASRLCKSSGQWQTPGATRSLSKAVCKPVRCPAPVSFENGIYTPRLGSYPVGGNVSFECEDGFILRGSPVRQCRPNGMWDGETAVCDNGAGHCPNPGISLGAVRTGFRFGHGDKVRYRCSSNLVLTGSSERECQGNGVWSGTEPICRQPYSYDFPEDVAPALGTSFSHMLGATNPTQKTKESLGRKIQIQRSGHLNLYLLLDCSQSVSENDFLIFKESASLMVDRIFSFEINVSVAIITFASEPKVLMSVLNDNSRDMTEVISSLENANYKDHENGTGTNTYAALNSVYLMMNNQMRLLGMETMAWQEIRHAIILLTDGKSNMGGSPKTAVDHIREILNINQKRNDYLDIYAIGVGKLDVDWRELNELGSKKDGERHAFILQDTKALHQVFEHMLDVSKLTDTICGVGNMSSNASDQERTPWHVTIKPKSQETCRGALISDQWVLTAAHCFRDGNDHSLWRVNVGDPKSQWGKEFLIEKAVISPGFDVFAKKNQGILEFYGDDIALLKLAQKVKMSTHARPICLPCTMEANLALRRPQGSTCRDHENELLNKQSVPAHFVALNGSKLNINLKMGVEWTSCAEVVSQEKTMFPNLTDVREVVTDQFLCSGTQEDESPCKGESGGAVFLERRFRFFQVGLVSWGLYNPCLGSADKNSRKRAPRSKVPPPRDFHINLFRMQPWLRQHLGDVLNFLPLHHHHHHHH

[3] = target: T3, human C2 S278A (human, UniProt P06681 21-752)
T3 sequence: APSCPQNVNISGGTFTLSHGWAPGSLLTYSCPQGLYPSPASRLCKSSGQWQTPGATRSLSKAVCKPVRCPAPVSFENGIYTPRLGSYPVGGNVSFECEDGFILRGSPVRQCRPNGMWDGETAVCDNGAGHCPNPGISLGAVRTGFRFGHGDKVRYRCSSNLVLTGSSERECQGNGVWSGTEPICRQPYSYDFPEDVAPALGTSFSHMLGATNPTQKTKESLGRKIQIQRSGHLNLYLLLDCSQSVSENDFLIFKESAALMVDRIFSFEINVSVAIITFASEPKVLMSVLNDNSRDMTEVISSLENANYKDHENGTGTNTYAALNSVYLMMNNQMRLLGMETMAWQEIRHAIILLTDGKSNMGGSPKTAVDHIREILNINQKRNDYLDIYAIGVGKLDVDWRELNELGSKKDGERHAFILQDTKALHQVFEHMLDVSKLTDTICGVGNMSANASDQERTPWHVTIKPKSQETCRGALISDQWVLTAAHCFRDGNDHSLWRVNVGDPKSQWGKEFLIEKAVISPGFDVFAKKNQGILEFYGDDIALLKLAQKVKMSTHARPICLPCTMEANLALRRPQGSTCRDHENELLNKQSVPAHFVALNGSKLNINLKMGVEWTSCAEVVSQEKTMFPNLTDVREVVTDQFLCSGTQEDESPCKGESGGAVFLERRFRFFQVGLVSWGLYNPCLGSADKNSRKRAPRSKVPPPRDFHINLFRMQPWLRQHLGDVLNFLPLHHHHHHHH

[4] = target: T4, human C2 N471A (human, UniProt P06681 21-752)
T4 sequence: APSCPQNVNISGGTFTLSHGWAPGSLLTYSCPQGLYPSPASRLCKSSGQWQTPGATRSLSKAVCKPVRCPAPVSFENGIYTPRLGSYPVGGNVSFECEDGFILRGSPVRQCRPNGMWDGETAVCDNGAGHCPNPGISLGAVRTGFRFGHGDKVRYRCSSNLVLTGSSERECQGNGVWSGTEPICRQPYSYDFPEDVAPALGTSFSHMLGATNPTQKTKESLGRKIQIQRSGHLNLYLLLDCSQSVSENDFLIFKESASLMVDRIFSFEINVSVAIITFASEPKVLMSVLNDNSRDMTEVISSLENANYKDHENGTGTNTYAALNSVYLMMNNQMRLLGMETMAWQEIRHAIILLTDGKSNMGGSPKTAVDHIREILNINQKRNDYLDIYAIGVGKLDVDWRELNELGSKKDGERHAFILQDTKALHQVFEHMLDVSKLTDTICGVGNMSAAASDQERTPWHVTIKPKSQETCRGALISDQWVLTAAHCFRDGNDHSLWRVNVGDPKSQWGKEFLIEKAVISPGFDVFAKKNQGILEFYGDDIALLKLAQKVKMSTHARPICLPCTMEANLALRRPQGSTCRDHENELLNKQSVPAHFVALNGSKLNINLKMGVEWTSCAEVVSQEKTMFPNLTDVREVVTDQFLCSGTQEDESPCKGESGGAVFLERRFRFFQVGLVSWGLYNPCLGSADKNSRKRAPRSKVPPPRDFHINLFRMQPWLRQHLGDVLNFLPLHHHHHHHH

- Fold diff [1]: 0 fold
- Fold diff [2]: 1 fold
- Fold diff [3]: 1 fold
- Fold diff [4]: 1 fold
B1: RF16-214 (antibody, V domains shown)
VH: EVQLLESGGGLVQPGGSLRLSCAASGFTFSWYQMMWVRQAPGKGLEWVSRIYPSGGGTAYADSVKGRFTISRDNSKNTLYLQMNSLRAEDTAVYYCARDAGYGDNWGQGTLVTVSS
VL: QSALTQPPSVSVSPGQTASITCSGDKLGEKYASWYQQKAGQSPVMVIYQDRKRPSGIPERFSGSNSGNTATLTISGTQAMDEADYYCQAWDTRAVVFGGGTKLTVLG

Reference: patent US20220332804A1 (CSL INNOVATION, published 2022)
